Results published in patent publication US20050227302A1, “Induction of apoptosis via ARTS-IAP complexes” (priority 2004, published 2005).

Assays:
XIAP [1] = molecular target: T1, XIAP (Homo sapiens, UniProt P98170); assay: In vitro binding assay, recombinant ARTS with GST-XIAP; conditions: GST-XIAP and purified recombinant ARTS protein, GST alone as negative control
T1 construct: made in house; host or cells: bacteria (pGEX-XIAP plasmid obtained from Dr. Colin S. Duckett)
Procedure: Recombinant ARTS protein was generated with the TNT-Quick Coupled Transcription/Translation System™ (Promega) and incubated overnight at 4° C. with either recombinant GST-XIAP bound to glutathione beads, or with GST alone bound to glutathione beads, followed by Western blot with anti-ARTS or anti-GST antibody (Gibco).

COS-7 cells [2] = assay: Apoptosis assays (TUNEL, anti-H2A.X) in COS-7 cells; type: cell-based, African Green Monkey; conditions: COS-7 cells stably transfected with an ARTS construct
Procedure: Apoptotic cells were detected using the anti-H2A.X antibody (Upstate; Paull, et al., 2000) or TUNEL. For TUNEL assays, COS-7 cells were transiently transfected with AU5-ARTS, AU5-ARTSΔC, AU5-ARTSmGTP and AU5-H5. Twenty-four hours after transfection, the cells were treated with staurosporine (STS) ([…]) for 1 or 3 hours, then fixed and permeabilized. Apoptosis levels were determined using the TUNEL. In situ™ cell death detection TMR kit (Roche) according to the manufacturer's protocol. All slides were coded and experiments were performed in a blind manner.
(§1) Stably transfected COS-7 pE-ARTS cells were generated using the pEF1-IRES vector (Hobbs S et al, Biochem Biophys Res Commun 252: 368-372, 1998). The construct contains an EF-1 promoter followed by a multi cloning site, an EMC (Encephalomyocarditis virus) internal ribosome entry sites (IRES), and a puromycin resistance gene. AU5-tagged ARTS was inserted into the XhoI site downstream of the EF-1 promoter. The construct was stably transfected into COS-7 cells. The cells were maintained in medium containing 4 μg/ml puromycin.

COS-7 cells [3] = assay: Immunofluorescence of ARTS and XIAP localization in COS-7 cells; type: cell-based, African Green Monkey; conditions: apoptotic cells over-expressing ARTS versus not over-expressing
Procedure: Cells were fixed with 4% paraformaldehyde in PBS for 20 min at room temperature, washed with PBS, permeabilized with 0.5% Triton-X in PBS for 5 min, and incubated with primary antibodies for 2 hours at room temperature (rabbit polyclonal anti-ARTS (1:20,000; Sigma), monoclonal anti-ARTS, and/or monoclonal anti-XIAP (1:500; used in subsequent Examples). Cells were washed three times with PBS/0.1% Triton-X and incubated with FITC conjugated anti-mouse and Rhodamin^TX-conjugated anti-rabbit secondary antibodies (Jackson). Images were analyzed using a confocal laser microscope (Zeiss LSM 510). Mitochondria were visualized with MitoTracker® Red CMXRos (Molecular Probes/Invitrogen).
For caspase inhibition, we added […] of BOC-Asp(Ome)CH2F (Enzyme Systems Products) one hour prior to addition of the apoptotic agents.

XIAP [4] = assay: XIAP protein levels by Western blot in COS-7 cells; type: cell-based, African Green Monkey
Procedure: Protein extracts were prepared with lysis buffer (150 mM NaCl, 50 mM Tris-HCl (pH 8), 1% NP-40, 0.5% deoxycholate acid) with protease inhibitors. Lysates containing equal amounts of total protein were pre-cleared overnight with 1 mg mouse IgG (Sigma) coupled with protein A/G-Sepharose mix (Amersham Biosciences) and the beads centrifuged. Supernatants were immuno-precipitated using 5 μl of anti-ARTS antibody for 4 h, anti-XIAP antibody, rabbit anti-myc antibody, or mouse IgG (negative control). Protein A/G Sepharose beads were added for 1 hour and washed four times with PBS. Antibodies against XIAP (as above), Myc (Santa Cruz), or anti-ARTS (NT) antibodies directed against the common N′ terminus of ARTS and H5 (ProSci Incorporated) were used for Western blot.
as §1
Cells were treated for 2 hours with […] of the proteasome inhibitor (MG132, Calbiochem) prior to induction of apoptotis.

[5] = molecular target: T2, Myc epitope-tagged wild-type XIAP (Homo sapiens (Human), UniProt P98170 1-497); assay: immunofluorescence co-localization by confocal microscopy in COS-7 cells transfected with AU5-ARTS and pcDNA3-Myc-XIAP, treated with etoposide
T2 construct: Expressed by transient transfection in COS-7 cells and used as cell lysate; The construct came from Dr. Colin S. Duckett; also called myc-tagged XIAP; mycXIAP
Procedure: FIG. 5. ARTS and XIAP co-localize during apoptosis. Immunofluorescence assay of COS-7 cells with anti-ARTS antibody (left column) and anti-XIAP antibody (second column from left). Nuclei are stained with Dapi (third column from left). Merged images are shown in the right column. Cells were untreated (top panel) or treated with […] etoposide for 2 hours (middle panel) or 16 hours (lower panel). Cells were analyzed using confocal microscopy (magnification 60). Non-apoptotic cells had very little overlap between ARTS and XIAP staining (top panel), with ARTS primarily localized to mitochondria and XIAP staining cytoplasmic, with some peri-nuclear concentration. Two hours after induction of apoptosis, co-localization of ARTS and XIAP occurred primarily near the nucleus (middle panel). After 16 hr both proteins perfectly co-localized in the nucleus.
To confirm the finding that ARTS-XIAP complexes exist in apoptotic cells, COS-7 cells transfected with AU5-ARTS and pcDNA3-Myc-XIAP were visualized by confocal microscopy. Apoptosis was induced with etoposide, and cells were stained after 2 and 16 hours. In non-apoptotic cells, ARTS and XIAP had distinct, essentially non-overlapping distributions, with ARTS primarily localized to mitochondria, whereas XIAP was localized to the cytoplasm, with some peri-nuclear concentration (FIG. 5, top panel). […]

T1 sequence (P98170 whole entry): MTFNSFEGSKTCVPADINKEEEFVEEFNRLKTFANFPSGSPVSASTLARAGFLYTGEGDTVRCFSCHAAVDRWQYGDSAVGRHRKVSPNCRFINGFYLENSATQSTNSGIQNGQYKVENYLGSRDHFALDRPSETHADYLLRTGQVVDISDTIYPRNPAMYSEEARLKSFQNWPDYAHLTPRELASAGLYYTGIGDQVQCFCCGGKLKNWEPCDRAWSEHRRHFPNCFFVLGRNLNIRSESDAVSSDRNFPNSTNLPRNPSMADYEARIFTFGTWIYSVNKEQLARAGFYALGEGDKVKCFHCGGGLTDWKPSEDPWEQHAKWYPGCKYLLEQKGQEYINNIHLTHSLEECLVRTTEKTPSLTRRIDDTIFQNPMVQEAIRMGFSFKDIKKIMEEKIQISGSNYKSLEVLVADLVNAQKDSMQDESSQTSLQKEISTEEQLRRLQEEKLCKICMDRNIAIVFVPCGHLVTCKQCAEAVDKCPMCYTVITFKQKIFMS
T2 sequence (P98170 whole entry): as above

ARTS-XIAP binding, direct or not (XIAP [1]): direct | binding result [5]: binds
B1: AU5-ARTS (other)
chain: MIKRFLEDTTDDGELSKFVKDFSGNASCHPPEAKTWASRPQVPEPRPQAPDLYDDDLEFRPPSRPQSSDNQQYFCAPAPLSPSARPRSPWGKLDPYDSSEDDKEYVGFATLPNQVHRKSVKKGFDFTLMVAGESGLGKSTLVNSLFLTDLYRDRKLLGAEERIMQTVEITKHAVDIEEKGVRLRLTIVDTPGFGDAVNNTECWKPVAEYIDQQFEQYFRDESGLNRKNIQDNRVHCCLYFISPFGHGYGPSLRLLAPPGAVKGTGQEHQGQGCH
notes: Expressed in transfected COS-7 cells and used as lysate or stained in cells; also called pEF1-AU5-ARTS; AU5-tagged ARTS; not shown: AU5 tag attached to the N' terminus of ARTS
apoptotic marker H2A.X (COS-7 cells [2]): high levels of the apoptotic marker H2A.X | XIAP staining in the nucleus (COS-7 cells [3]): significantly higher levels in the nucleus | amount of XIAP (XIAP [4]; COS-7 cells transiently transfected with pcDNA3-myc-XIAP and AU5-ARTS versus XIAP alone): significantly decreased | levels of XIAP (XIAP [4]; COS-7 pE-ARTS cells stably expressing high levels of ARTS): significantly reduced levels of XIAP | XIAP protein levels (XIAP [4]; transiently transfected COS-7 cells treated with 1 mM staurosporin (STS) for 0, 2 or 5 hours): reduced XIAP protein levels
